The nature of this data set: label from the status in PepcDB records.
Regarding “MVGKSKSPEFNFEDGMAYFDAVKVALQDTEPEKYQEFVRIFIDYTANRFGFETLSASLQELLRDHANLCHGSNVLLPFRLQTAIPPEASAEFHINKVVGRSVPPAVAVPTMDDATSYLNAVKEAFHDEPAKYMEITKLLTDLKARRINAASVIARMEELLKDHLNLLLGFCVFLSPTRRFITKLKARFLGDGSQVVDSVLQILRMHSEGNKSKDEASQEVRALIQGHEDLLMELSEIFSDP”, the protein production result is reported as “failed”. Turning to “MAKKILILGAAGEIARMLTDRLLAESDAELVLYGRNVSQRLALEENSRIKLVDGTFGESEKLEAALAGVDVVYLNSMSSPADTASVVQALEKAGVKRLLGATIAGVEDEVPYELATWTKNSLPASYIKGEYDSAKIVRDSNLDYTLLRLTWLFNDESDREYELVPSGVEFADAEVSRQAITQAILDILNGEESEYVRKSFGLGKPNTHYGKPSFY”, the protein production entry is on record as “failed”. To “MESRWNDEDAARFVEAARAEGQSEALGLRIYTSRLIGSDPDLVLHGGGNTSVKIRSDEGEQLMHIKGSGWDLDTIEAPGLPAVRLASLLEARNTPKLSDPDMVLLLRASLIEKDAPNPSVEALLHAFIPFDYVDHTHATAVLALADQPNMRDAIRRIYGDRLAYVPYVMPGFDLSIAADRIYRSHSDCEGLWLENHGLFSFANDARASYDLMIEFVTLAEQELARAGVALSGPQPNDGER” belongs “failed”; to “MSDLVKIRDVSLSTPYVSVIGKITGIHKKEYESDGTTKSVYQGYIEDDTARIRISSFGKQLQDSDVVRIDNARVAQFNGYLSLSVGDSSRIESVNVNIPLEHHHHHH”, “not failed”. With “MIFSFIFKVAVISSSGALAPGPLTAATAAIGVKRGWKGGFWVSVGHAAVELPLVILIATGVAVVLTHSSALSLLSVAGGVMLLSFAFLTAKSAFSKTEEKAESSANPFSTGVALSALNPFFIAWWAGVGAVLITEAISLWGYAGIAVLYLSHVWLDFAWLILLAHLTSMAIFSAKAYRALLVALAALVFLFGVDFLHYGLFSKHLLPI”, the protein production entry is reported as “failed”. Under “MGDPAPARSLDDIDLSALRDPAGIFELVEVVGNGTYGQVYKGRHVKTGQLAAIKVMDVTEDEEEEIKQEINMLKKYSHHRNIATYYGAFIKKSPPGNDDQLWLVMEFCGAGSVTDLVKNTKGNALKEDCIAYICREILRGLAHLHAHKVIHRDIKGQNVLLTENAEVKLVDFGVSAQLDRTVGRRNTFIGTPYWMAPEVIACDENPDATYDYRSDIWSLGITAIEMAEGAPPLCDMHPMRALFLIPRNPPPRLKSKKWSKKFIDFIDTCLIKTYLSRPPTEQLLKFPFIRDQPTERQVRIQLKDHIDRSRKKRGEKEETEYEYSGSEEEDDSHGEEGEPSSIMNVPGESTLRREFLRLQQENKSNSEALKQQQQLQQQQQRDPEAHIKHLLHQRQRRIEEQKEERRRVEEQQRREREQRKLQEKEQQRRLEDMQALRREEERRQAEREQEYKRKQLEEQRQSERLQRQLQQEHAYLKSLQQQQQQQQLQKQQQQQLLPGDRKPLYHYGRGMNPADKPAWAREVEERTRMNKQQNSPLAKSKPGSTGPEPPIPQASPGPPGPLSQTPPMQRPVEPQEGPHKSLVAHRVPLKPYAAPVPRSQSLQDQPTRNLAAFPASHDPDPAIPAPTATPSARGAVIRQNSDPTSEGPGPSPNPPAWVRPDNEAPPKVPQRTSSIATALNTSGAGGSRPAQAVRARPRSNSAWQIYLQRRAERGTPKPPGPPAQPPGPPNASSNPDLRRSDPGWERSDSVLPASHGHLPQAGSLERNRVGVSSKPDSSPVLSPGNKAKPDDHRSRPGRPADFVLLKERTLDEAPRPPKKAMDYSSSSEEVESSEDDEEEGEGGPAEGSRDTPGGRSDGDTDSVSTMVVHDVEEITGTQPPYGGGTMVVQRTPEEERNLLHADSNGYTNLPDVVQPSHSPTENSKGQSPPSKDGSGDYQSRGLVKAPGKSSFTMFVDLGIYQPGGSGDSIPITALVGGEGTRLDQLQYDVRKGSVVNVNPTNTRAHSETPEIRKYKKRFNSEILCAALWGVNLLVGTENGLMLLDRSGQGKVYGLIGRRRFQQMDVLEGLNLLITISGKRNKLRVYYLSWLRNKILHNDPEVEKKQGWTTVGDMEGCGHYRVVKYERIKFLVIALKSSVEVYAWAPKPYHKFMAFKSFADLPHRPLLVDLTVEEGQRLKVIYGSSAGFHAVDVDSGNSYDIYIPVHIQSQITPHAIIFLPNTDGMEMLLCYEDEGVYVNTYGRIIKDVVLQWGEMPTSVAYICSNQIMGWGEKAIEIRSVETGHLDGVFMHKRAQRLKFLCERNDKVFFASVRSGGSSQVYFMTLNRNCIMNW” stands “failed”; under “MKKSKYLTLLSVAALTLLTSGLGSQAVLADTDTAQTTNTSTNTTTDTSKTSTALNHQEAKGQKLTTPVGTLPNAQDAISNKAVLKRVHGYSWKTTPDVSAAGSQKATVVITYTDGTTSEVEVDLEVTGTGCASQNSPVAKTGLTVKVGKSLTARSAISNLSRLRNVDSVTWKQAPSTAKAGTVKGTVLVTYTDKSTDTVDVTVKVSSVVTTKKSVKKSKKKQYVTKTRKIILDRPGKNKTITQKVKLSRTVTTTTTTTKTYTDGKLTKTSKKAKKSYGKWSKGTWKSYKVPAISGYKRSTTKVKAKAVTSKTKNITVKVSYKRVLHKPANAPYYDPADMRAKTGAYYFQSSEKRAYPNLAKYKNVWIRVSILGNRVYVMSGKKVIYTMYSSAGRFEMTNGKYQSDTPRGTFYLKAAYGPSFMSSDGVGARYYMAYYGSDYLFHSVPINNYGSGVYYKGYHYGYGGVGSTAHLTVQGTNPDSLGCIRLTLSDARWLYGQRTSGKLKVGTKVVIKYK”, “failed”. To “MTTCGEFLVKQLEAWGVETVFGIPGVHTVELYRGLPGSRIRHVTPRHEQGAGFMADGYARVTGKPGVCFIITGPGMTNILTAMAQAYADSIPMLVISSVNERARLAHGNGYLHELPNQRNLVGNVCAFSHTLMSAEELPAVLARAFAVFDSERPRPVHIELPLDVITAPAEHLALRPRTVTSRPAPALAPLREAAARLRNAKKPLLLLGGGCVEAAAEARALAAALDAPTALTINAKGLLPADHPLLLGSNQSCVPVRELATEADVVLAIGTELGETDYDVVFDGGFALDGELIRIDIDPQQLMRNYTPSLAIHSDARLAMRVLLAELPGGEASPDSPGARRAAAVRQRLAEDFAGWSHYRQLFAAILAEWPDARFVGDSTQTVYSGNHLVDLDEPRRWFNASTGYGTLGYGLPAAIGAKLGEPGRPVVSLMGDGGLQFTLPELASAVEAKVGIVVLLWNNHGYGEIKRYMERREITPLGVDIYTPDFLAIARGFGCAAERARDLEHLRELLRGAPADRPLIVEVLQAAPFHP” belongs “failed”; to “MDPRQFEHTVVADNDIHSIVMSYLLHNCFNETADSLASSTGVKQPAIDRDNMERRKQIIHFILERKALKAFELTEQLAQDLLEKNKDLQFDLLCLHFVELICAGNCTEALKFGKTRLAPFGKVKKYVEKLEDVMALLAYEDPEKSPMFHLLSSEYRQQVADNLNRTILEHTNHPSYTPMERIIQQVTVVRQYLTEENGKDAFPPFSLKDSLKG”, “failed”. For the sequence “MSLDTVDKLVVFLAKRDGIDKLVKTFQYVAKLACWHVEATRPEAADRFKKWEVASGLSRKAFRTGRSLTGFNALRRNPGATPMIRFLAVLANSGEMVYFFFDHFLWLSRIGSIDAKLAKKMSFISAFGESFGYTFFIIIDCIFIKQRLKSLKKLQHSTDEPKEEIGAKISEIRGDIVMRLMGISANVADLLIALAEIHPNPFCNHTITLGISGLVSAWAGWYRNWPS”, the protein production result is listed as “failed”.

As to “PRLLCTATKQKNSGQNLEEDMGQSEQKADPPATEKTLLEEKVKLEEQLKETVEKYKRALADTENLRQRSQKLVEEAKLYGIQAFCKDLLEVADVLEKATQCVPKEEIKDDNPHLKNLYEGLVMTEVQIQKVFTKHGLLKLNPVGAKFDPYEHEALFHTPVEGKEPGTVALVSKVGYKLHGRTLRPALVGVVKEA”, the protein production entry is given as “failed”. To “SRPLGEVYLDSSKPAVYNYPEGAAYEFNAAAAANAQVYGQTGLPYGPGSEAAAFGSNGLGGFPPLNSVSPSPLMLLHPPPQLSPFLQPHGQQVPYYLENEPSGYTVREAGPPAFYRPNSDNRRQG” belongs “not failed”; to “MNTSGIGGYFRQGLFGRDLLASVVVFLVALPLCMGIAIASGMPPAAGLITGIVGGLVVGFLAGSPLQVSGPAAGLAVLVFELVREHGAVALGPVILVAGAIQLIAGLCRAGVWFRMTSPAVVAGMLSGIGILIVASQAHVLMDAAPKARGLENFAALPGVLWQAISEGTGRNALFVGLATIGIILAWDKLRPQRLRFLPGALIAVVVVTATVQLQGLNVNKVDVPTNLFSAISIPSISDIFGVFNHTLLVSAVTFAFIASAETLLSAAAVDRMHQGARTQYDRELAAQGVGNMLCGFLGALPMTGVIVRSAANVQAGAATRASTILHGSWLLVFAMLLPWLLRMTPVACLAGILVYTGVKMIKIGQVKELATYGRGTAAIYLATTFAIVATDLLTGVLIGFGLSLFRLALHSSRLKVEVREHADKKDEMHLTLQGSATFLKVPAMARTLESVPPNTALHLDVAKLHHVDHACIELLRDWSRNAASRGCELVVDWKELDRRVEGQPTVDGVLVEQRVEQAKAA”, “failed”. To “MVSRQEGTLYSRKRDFTVCGEEFHNSFKKSKQEDQSQSTLFNERPKSESMRSITFDFELHLHTPLPSDWQTKMSLDLELNLSPSGSPSRTTTKKYESSSIHNETVSSSKIKVLTNTSKKSIIGTGLSRSPSWLAFEGGDDNDVDHKGQEMVTTVCMKCHMLVMLCTSTPVCPNCKFMHPHDHSSTKLFKPSNLLRLLC” belongs “failed”; to “MYFLLNLVGLIVIMAVVFLCSPQKKKIKWRPIITLIVLELLITWFMLGTKVGSWAIGKIGDFFTWLIACASDGIAFAFPSVMANETVDFFFSALLPIIFIVTFFDILTYFGILPWLIDKIGWVISKASRLPKLESFFSIQMMFLGNTEALAVIRQQLTVLSNNRLLTFGLMSMSSISGSIIGSYLSMVPATYVFTAIPLNCLNALIIANLLNPVHVPEDEDIIYTPPKEEKKDFFSTISNSMLVGMNMVIVILAMVIGYVALTSAVNGILGVFVHGLTNQTIFAYLFSPFAFLLGLPVHDAMYVAQLMGMKLATNEFVAMLDLKNNLKSLPPHTVAVATTFLTSFANFSTVGMIYGTYNSILDGEKSTVIGRNVWKLLVSGIAVSLLSAAIVGLFVW”, “failed”. Take “KRFESPSVIKPNTLTNQQLIETCDQLIENAVKHHLVADVPVGLYLSGGIDSTLLLSKIRKLGHLNFPTFTIANSSREQAFGTRDFEFARLASKLYNSDHHEVSVHAEMLQDLPAFVSMIDQPIGDSALFLTHILSKEAGQHVRVALNGAGADELFAGYNRHSAYKSYLNNLLHKNLAITLIKSTYNILPDGGNHSLKKVFRLWNKFTGMMDVDPIKTCHNFSSSEYFIEKNTSIEVDDKSYEDLSYYLYYCLRNDRTKYLISDILALTDKMTMRSSIEARVPYLDQELRRFVESLDPSVLLKNGRKWILKEVLLRNGGETFLNRPKEGFGMPFGYWLKLPVNKNFVEKLTNKNHPIYEWVPYQTIKNLVDWHLGSKRDCSSELWSVLLLMHWYEKE”: the protein production result was “failed”. Under “SDESDLPSAMPAVPAFGVEERNMVSGVLTLAERSIRSIMTPRTDVSWVNIDDDAATIRQQLTAAPHSFFPVCRGSLDEVVGIGRAKDLVADLITEGRVRRNRLRDPIIVHESIGILRLMDTLKRSRGQLVLVADEFGAIEGLVTPIDVFEAIAGEFPDEDELPDIVAESE” stands “not failed”; under “MPTPPAASSLAAQMGESPAPLYARVKHMIALQIQNGTWPPHHRVPSESELVTQLGFSRMTINRALRELTVEGLLVRMQGVGTFVAEPKSQSALFEVHNIADEIAARGHRHTCKVMVLKEEAAGSERALALDMREGQRVFHSLIVHFENDIPVQIEDRFVNAQVAPDYLKQDFTLQTPYAYLSQVAPLTEGEHVVEAILAEADECKLLQIDAGEPCLLIRRRTWSGRQPVTAARLIHPGSRHRLEGRFTK”, “not failed”. In the case of “MAGFMKNAMSYLGMSDVVDDEDDYIEEDEEQKPASKSAFDSDHTVTPLASTTAPAASSTTKPFPGGRVNRITTIHPKSYEDAQLVGRALRDGVPVVLNLTGVAEAVAYRIVDFSAGVVFGVRGSLERVTPRVFLLSPAQVNIKVEEPTKPASAHDLFADLEHHHHHH”, the protein production result was “failed”.

Source of the values: a protein production outcome set (Wang et al. 2014).
